Data on two proteins can be found in article PMC6079037, “Hydra Mesoglea Proteome Identifies Thrombospondin as a Conserved Component Active in Head Organizer Restriction” (Scientific Reports, 2018).

Data set [1] deals with the molecule itself. As to the kind of experiment: AUC; sedimentation equilibrium; HsTSP1cc 50 uM in PBS, 20 °C, 20,000-50,000 rpm; fitted to a single, ideal species model.
Data set [2] deals with the molecule itself. As to the kind of experiment: non-reducing SDS-PAGE and immunoblot; V5-tagged proteins from conditioned media of transfected COS7 cells, collected on Talon resin, boiled in SDS sample buffer without DTT; 7% SDS-polyacrylamide gels; V5 antibody blot. (In general: In western blotting, separated proteins are transferred to a membrane and probed.)

Ends that are not written are not given here.

B1: HsTSP1cc, synthetic peptide of the trimerizing coiled-coil domain of human TSP1 (residues 275-314 of TSP1) (peptide)
peptide: Ac-GDELSSMVLELRGLRTIVTTLQDSIRKVTEENKELANELRRGW
notes: added residue before the TSP1 stretch; human thrombospondin-1 (TSP1), coiled-coil domain, residues 275-314; added residues after the TSP1 stretch (the Trp is used to measure concentration at 280 nm); 43-mer; Made on Rink amide resin, so the C-terminus is probably an amide (surmised); source: synthetic peptide (Fmoc solid phase on Rink amide resin), purified by RP-HPLC
For B1, the stoichiometry N (in general, a count of units in the complex or per binding partner) in data set [1] is 2.96 x monomer mass.

B2: human TSP1.V5 (thrombospondin-1 with V5 tag) (natural protein)
chain: not shown
notes: human thrombospondin-1 (TSP1); calculated monomer molecular weight of TSP1.V5 132.3 kDa
Regarding B2, in data set [2], the “stoichiometry N” value was determined as 3.
